The MegaScale stability set (Tsuboyama et al. 2023)

B1: 1ZHC (parent)
chain: HEFRDEISVLKANNPHFDKIFEKHNQLDDDIKTAEQQNASDAEVSHMKKQKLKLKDEIHSMIIEYREK

Variants of: B1
Assay: folding stability dG (cDNA display proteolysis); higher = more stable
Settings: PBS, room temperature

Row | Variant | folding stability dG [kcal/mol]
1 | HEFRDEISVLKANNPHFDKIFEKHNQLDDDIKTAEQQNWSDAEVSHMKKQKLKLKDEIHSMIIEYREK | 1.3
2 | HEFRDEISVLKANNPHFDKIFEKHNQLDDDIKTAEQQNISDAEVSHMKKQKLKLKDEIHSMIIEYREK | 0.873
3 | HPFRDEISVLKANNPHFDKIFEKHNQLDDDIKTAEQQNASDAEVSHMKKQKLKLKDEIHSMIIEYREK | 0.82
4 | HHFRDEISVLKANNPHFDKIFEKHNQLDDDIKTAEQQNASDAEVSHMKKQKLKLKDEIHSMIIEYREK | 0.917
5 | HFFRDEISVLKANNPHFDKIFEKHNQLDDDIKTAEQQNASDAEVSHMKKQKLKLKDEIHSMIIEYREK | 0.966
6 | HEFRDEISVLFANNPHFDKIFEKHNQLDDDIKTAEQQNASDAEVSHMKKQKLKLKDEIHSMIIEYREK | 0.176
7 | HEFRDEISVLKANNPHFDKIFEKHNQFDDDIKTAEQQNASDAEVSHMKKQKLKLKDEIHSMIIEYREK | 0.005
8 | HEFRDEISVLKANNPHFDKIFEKHNQYDDDIKTAEQQNASDAEVSHMKKQKLKLKDEIHSMIIEYREK | -0.311
9 | HEFRDEISVLKANNPHFDKIFEKHNQLDDDIKTAEQQNASDAEVSHMKKQKLKLKDTIHSMIIEYREK | 0.674
10 | HEFRDEISVLKANNPHFDKIFEKHNQLDDDIKTAIQQNASDAEVSHMKKQKLKLKDEIHSMIIEYREK | 1.68
11 | HEFRDEVSVLKANNPHFDKIFEKHNQLDDDIKTAEQQNASDAEVSHMKKQKLKLKDEIHSMIIEYREK | 0.475
12 | HEFRDEISVLKANNPHFDKIFEKHNQLDDDIKYAEQQNASDAEVSHMKKQKLKLKDEIHSMIIEYREK | 0.829
13 | HEFRDEISVLKANNPHFDKIFEKHNQLDDDIKWAEQQNASDAEVSHMKKQKLKLKDEIHSMIIEYREK | 0.943
14 | HEFRDEISVLKANNPHFDKIFEKHNQLDDDIKTAEQQNASDAEVSHMKKQKLKLKDEIHSMIIEYREW | 0.673
15 | HEFRDEISVLKANNPHFDKIFEKHNQLRDDIKTAEQQNASDAEVSHMKKQKLKLKDEIHSMIIEYREK | 0.988
16 | HEFRDEIAVLKANNPHFDKIFEKHNQLDDDIKTAEQQNASDAEVSHMKKQKLKLKDEIHSMIIEYREK | 1.56
17 | HEFRDEISVLKANNPHFDKIFEKHAQLDDDIKTAEQQNASDAEVSHMKKQKLKLKDEIHSMIIEYREK | 1.03
18 | HEFRDEISVLKANNPHFDKIFEKHEQLDDDIKTAEQQNASDAEVSHMKKQKLKLKDEIHSMIIEYREK | 0.44
19 | HEFRDEISVLKANNPHFDKIFEKHTQLDDDIKTAEQQNASDAEVSHMKKQKLKLKDEIHSMIIEYREK | 0.573
20 | HEWRDEISVLKANNPHFDKIFEKHNQLDDDIKTAEQQNASDAEVSHMKKQKLKLKDEIHSMIIEYREK | 1.15
21 | HEGRDEISVLKANNPHFDKIFEKHNQLDDDIKTAEQQNASDAEVSHMKKQKLKLKDEIHSMIIEYREK | 0.249
22 | HEFRDEISVLKANNPHFDKIFEKHNQLDDDIKTAEQQNASDAEVSHMKNQKLKLKDEIHSMIIEYREK | 0.588
23 | HEFRDEISVLKANNPHFDKIFEKHNQLDDDIKTAEQQNASDAEVSHMKCQKLKLKDEIHSMIIEYREK | 1.11
24 | HEFRDEISVLKANNPHFDKIFEKHNQLDDDIKTAEQQNASDAEVSHMKKQKLKLKDEIHKMIIEYREK | 1.51
25 | HEFRDEISVLKANNPHFDKIFEKHNQLDDDIKTAEQQNASDAEVSHMKKQKLKLKDEIHNMIIEYREK | 0.933
26 | HEFRDEISVLKANNPHFDKIFEKHNQLDDDIHTAEQQNASDAEVSHMKKQKLKLKDEIHSMIIEYREK | 0.348
27 | HEFRDEISVLKANNPHFDKIFEKHNQLDDDIKTAEQQNAEDAEVSHMKKQKLKLKDEIHSMIIEYREK | 0.469

Row | Variant | folding stability dG [kcal/mol]
28 | HEFRDEISVLKANNPHFDKIFEKHNQLDDDIKTAEQQNADDAEVSHMKKQKLKLKDEIHSMIIEYREK | 0.774
29 | HEFRDEISVLKANNPHFDKIFEYHNQLDDDIKTAEQQNASDAEVSHMKKQKLKLKDEIHSMIIEYREK | 1.02
30 | HEFRDEISVLKANNPHFDKIFEKHNQLDDDIKTAEQQNASHAEVSHMKKQKLKLKDEIHSMIIEYREK | 0.871
31 | HEFRDEISVLKANNVHFDKIFEKHNQLDDDIKTAEQQNASDAEVSHMKKQKLKLKDEIHSMIIEYREK | 0.356
32 | HEFRDEISVLKANNPHFDKIFEKHNQLDDDIKTAEQQNASDAEVSHMKKQKLKLKDEIDSMIIEYREK | 1.11
33 | HEFRDDISVLKANNPHFDKIFEKHNQLDDDIKTAEQQNASDAEVSHMKKQKLKLKDEIHSMIIEYREK | 0.718
34 | HEFRDEISVLKANNPHFDKIFEKHNQLDDDIKTAEQINASDAEVSHMKKQKLKLKDEIHSMIIEYREK | 0.631
35 | HEFRDEISVLKANNPHFDKIFEKHNQLDDDIKTAEQKNASDAEVSHMKKQKLKLKDEIHSMIIEYREK | 0.764
36 | HEFRDEISVLKAVNPHFDKIFEKHNQLDDDIKTAEQQNASDAEVSHMKKQKLKLKDEIHSMIIEYREK | 0.458
37 | HEFRDEISVLKANNPHFDKIFEKHNQLDDDIKTAEQQNASDAEVSHMKKQKLKLKDEIHSLIIEYREK | 0.762
38 | HEFRDEISVLKANNPHFDKIFCKHNQLDDDIKTAEQQNASDAEVSHMKKQKLKLKDEIHSMIIEYREK | 0.723
39 | HEFRDEISVLKANNPHFDKIFLKHNQLDDDIKTAEQQNASDAEVSHMKKQKLKLKDEIHSMIIEYREK | 1.04
40 | SEFRDEISVLKANNPHFDKIFEKHNQLDDDIKTAEQQNASDAEVSHMKKQKLKLKDEIHSMIIEYREK | 1.03
41 | QEFRDEISVLKANNPHFDKIFEKHNQLDDDIKTAEQQNASDAEVSHMKKQKLKLKDEIHSMIIEYREK | 0.787
42 | REFRDEISVLKANNPHFDKIFEKHNQLDDDIKTAEQQNASDAEVSHMKKQKLKLKDEIHSMIIEYREK | 0.829
43 | HEFRDEISVLKANNPHFDKIFEKHNQLDDDIKTAEQQNASDAEVSHMKKQKQKLKDEIHSMIIEYREK | 1.28
44 | HEFRDEISVLKANNPHFDKIFEKHNQLDDDIKTAEQQNASDAEVSHMKKQKEKLKDEIHSMIIEYREK | 1.17
45 | HEFRDEISVLKANNPHFDKIFEKHNQLDDDIKTAEQQNASDAEVSHMKKQKWKLKDEIHSMIIEYREK | 0.394
46 | HEFRDEISVLKANNPHFDKIFEKHNQLDDDIKTAEQQNASDAEVSHMKKQKSKLKDEIHSMIIEYREK | 0.812
47 | HEFRDEISVLKANNPHFDKIFEKHNQLDDDIKTVEQQNASDAEVSHMKKQKLKLKDEIHSMIIEYREK | -0.863
48 | HEFRDEISVLKANNPHFDLIFEKHNQLDDDIKTAEQQNASDAEVSHMKKQKLKLKDEIHSMIIEYREK | 0.515
49 | HEFRDEISVLKANNPHFDYIFEKHNQLDDDIKTAEQQNASDAEVSHMKKQKLKLKDEIHSMIIEYREK | 1.52
50 | HEFRDEISVLKANNPHFDKIFEKHNQLDDDIKTAEQQNASDAEVSHMKKQKLKLKDEFHSMIIEYREK | 0.304
51 | HEFRDEISVLKANNPHFDKLFEKHNQLDDDIKTAEQQNASDAEVSHMKKQKLKLKDEIHSMIIEYREK | 0.743
52 | HEFRDEISVLKANNPHFDKTFEKHNQLDDDIKTAEQQNASDAEVSHMKKQKLKLKDEIHSMIIEYREK | -0.398
53 | HEFRDEISVLKANNPHFDKIFEKHNQLDDDIKTAEQQNASDANVSHMKKQKLKLKDEIHSMIIEYREK | 0.299
54 | HEFRDEISVLKANNPHFDKIFEKHNQLDDDIKTAEQQNASDAMVSHMKKQKLKLKDEIHSMIIEYREK | 1.12

Row | Variant | folding stability dG [kcal/mol]
55 | HEFRDEISVLKANNPHFDKIFEKHNQLDDWIKTAEQQNASDAEVSHMKKQKLKLKDEIHSMIIEYREK | 1.09
56 | HEFRDEISVLKANNPHFDKIFEKHNQLDDAIKTAEQQNASDAEVSHMKKQKLKLKDEIHSMIIEYREK | 1.4
57 | HEFRDEISVLKVNNPHFDKIFEKHNQLDDDIKTAEQQNASDAEVSHMKKQKLKLKDEIHSMIIEYREK | 0.253
58 | HEFRDEISVLKNNNPHFDKIFEKHNQLDDDIKTAEQQNASDAEVSHMKKQKLKLKDEIHSMIIEYREK | 0.287
59 | HEFRDEISVLKLNNPHFDKIFEKHNQLDDDIKTAEQQNASDAEVSHMKKQKLKLKDEIHSMIIEYREK | 0.297
60 | HEFRDEISVLKANNPHFDKIFEKHNQLDDDIKTAEQQNASDAEVFHMKKQKLKLKDEIHSMIIEYREK | 0.625
61 | HEFRDEISVLKANNPHFDKIFEKHNQLDDDIKTAEQQNASDAEVSHMKKQKLKLKDEIHSMIIEQREK | 0.149
62 | HEFRDEISVLKANNPHFDKIFEKHNQLDDDIKTAEQQNASDAEVSHMKKQKLKLKEEIHSMIIEYREK | 1.29
63 | HEFRDEISVLKANNPHFDKIFEKHNQLDDDIKTAEQQNASDAEVSHMKKQKLKLKNEIHSMIIEYREK | 1.07
64 | HEFRDEISVLKANNPYFDKIFEKHNQLDDDIKTAEQQNASDAEVSHMKKQKLKLKDEIHSMIIEYREK | 1.53
65 | HEFRDEISVLKANNPIFDKIFEKHNQLDDDIKTAEQQNASDAEVSHMKKQKLKLKDEIHSMIIEYREK | 0.609
66 | HEFRDEISVLKANNPGFDKIFEKHNQLDDDIKTAEQQNASDAEVSHMKKQKLKLKDEIHSMIIEYREK | -0.149
67 | HEFRDEISWLKANNPHFDKIFEKHNQLDDDIKTAEQQNASDAEVSHMKKQKLKLKDEIHSMIIEYREK | 2.46
68 | HEFRDEISVLKANNPHFDKIFEKHNQLDDDIKTAEQQNASDAEVSYMKKQKLKLKDEIHSMIIEYREK | 1.19
69 | HEFRDEISVLKANNPHFDKIFEKHNQLDDDIKTAEQQNASDAEVSPMKKQKLKLKDEIHSMIIEYREK | -0.278
70 | HEFRDEISVLKANNPHFDKIFEKHNQLDDDIKTAEQQNASDAEVSTMKKQKLKLKDEIHSMIIEYREK | 0.889
71 | HEFRDEISVLKANNPHFDKIFEKHNQLDDDIKTAEQQNASDAEVSHMKKQKLKLKDEIHSMIIEYRQK | 1.18
72 | HEFRDEISVLKANNPHFDKIFEKHNQLDDDIKTAEQQNASDAEVSHMKKQKLKLIDEIHSMIIEYREK | 1.09
73 | HEFRDEISVLKANNPHFDKIFEKHNQLDDDIKTAEQQNASDAEVSHMKKQWLKLKDEIHSMIIEYREK | 1.57
74 | HEFRDEISVLKANNPHFDKIFEKHNQLDDDIKTAEQQNASDAEVSHMKKQKLKLKDEIHSMIIEYFEK | 0.147
75 | HEFRDEISVLKANNPHFDKIFEKHNQLDDDIKTAEQQVASDAEVSHMKKQKLKLKDEIHSMIIEYREK | -0.172
76 | HEFRDEISVVKANNPHFDKIFEKHNQLDDDIKTAEQQNASDAEVSHMKKQKLKLKDEIHSMIIEYREK | -0.406
77 | HEFRDEISVLKANNPHFDKIFEKHNQLDDDIKTAEQQNASDAEVSHMKKQKLKMKDEIHSMIIEYREK | -0.648
78 | HEFRDEISVLKANNPHFDKIFEKHNQLDDDIKTAEQQNASDAEVSHMKKQKLKWKDEIHSMIIEYREK | -0.913
79 | HEFRDEISVLKANNPHFDKIHEKHNQLDDDIKTAEQQNASDAEVSHMKKQKLKLKDEIHSMIIEYREK | -0.017
